Reference: PMC11574045, “A cofactor-induced repressive type of transcription factor condensation can be induced by synthetic peptides to suppress tumorigenesis” (The EMBO Journal, 2024)

B1: ZNF770 (protein, UniProt Q6IQ21 1-691, looked up)
Zinc finger protein 770: MMAENNLKMLKIQQCVVANKLPRNRPYVCNICFKHFETPSKLARHYLIHTGQKPFECDVCHKTFRQLVHLERHQLTHSLPFKCSICQRHFKNLKTFVKHQQLHNETYQNNVKQVRRLLEAKQEKSMYGVYNTFTTEERWALHPCSKSDPMYSMKRRKNIHACTICGKMFPSQSKLDRHVLIHTGQRPFKCVLCTKSFRQSTHLKIHQLTHSEERPFQCCFCQKGFKIQSKLLKHKQIHTRNKAFRALLLKKRRTESRPLPNKLNANQGGFENGEIGESEENNPLDVHSIYIVPFQCPKCEKCFESEQILNEHSCFAARSGKIPSRFKRSYNYKTIVKKILAKLKRARSKKLDNFQSEKKVFKKSFLRNCDLISGEQSSEQTQRTFVGSLGKHGTYKTIGNRKKKTLTLPFSWQNMGKNLKGILTTENILSIDNSVNKKDLSICGSSGEEFFNNCEVLQCGFSVPRENIRTRHKICPCDKCEKVFPSISKLKRHYLIHTGQRPFGCNICGKSFRQSAHLKRHEQTHNEKSPYASLCQVEFGNFNNLSNHSGNNVNYNASQQCQAPGVQKYEVSESDQMSGVKAESQDFIPGSTGQPCLPNVLLESEQSNPFCSYSEHQEKNDVFLYRCSVCAKSFRSPSKLERHYLIHAGQKPFECSVCGKTFRQAPHWKRHQLTHFKERPQGKVVALDSVM
B2: ZNF576 (protein, UniProt Q9H609 1-170, looked up)
Zinc finger protein 576: MEDPNPEENMKQQDSPKERSPQSPGGNICHLGAPKCTRCLITFADSKFQERHMKREHPADFVAQKLQGVLFICFTCARSFPSSKALITHQRSHGPAAKPTLPVATTTAQPTFPCPDCGKTFGQAVSLRRHRQMHEVRAPPGTFACTECGQDFAQEAGLHQHYIRHARGEL
B3: ZNF800 (protein, UniProt Q2TB10 1-664, looked up)
Zinc finger protein 800: MPLRDKYCQTDHHHHGCCEPVYILEPGDPPLLQQPLQTSKSGIQQIIECFRSGTKQLKHILLKDVDTIFECKLCRSLFRGLPNLITHKKFYCPPSLQMDDNLPDVNDKQSQAINDLLEAIYPSVDKREYIIKLEPIETNQNAVFQYISRTDNPIEVTESSSTPEQTEVQIQETSTEQSKTVPVTDTEVETVEPPPVEIVTDEVAPTSDEQPQESQADLETSDNSDFGHQLICCLCRKEFNSRRGVRRHIRKVHKKKMEELKKYIETRKNPNQSSKGRSKNVLVPLSRSCPVCCKSFATKANVRRHFDEVHRGLRRDSITPDIATKPGQPLFLDSISPKKSFKTRKQKSSSKAEYNLTACKCLLCKRKYSSQIMLKRHMQIVHKITLSGTNSKREKGPNNTANSSEIKVKVEPADSVESSPPSITHSPQNELKGTNHSNEKKNTPAAQKNKVKQDSESPKSTSPSAAGGQQKTRKPKLSAGFDFKQLYCKLCKRQFTSKQNLTKHIELHTDGNNIYVKFYKCPLCTYETRRKRDVIRHITVVHKKSSRYLGKITASLEIRAIKKPIDFVLNKVAKRGPSRDEAKHSDSKHDGTSNSPSKKYEVADVGIEVKVTKNFSLHRCNKCGKAFAKKTYLEHHKKTHKANASNSPEGNKTKGRSTRSKALV
B4: CDX1 (protein, UniProt P47902 1-265, looked up)
Homeobox protein CDX-1: MYVGYVLDKDSPVYPGPARPASLGLGPQAYGPPAPPPAPPQYPDFSSYSHVEPAPAPPTAWGAPFPAPKDDWAAAYGPGPAAPAASPASLAFGPPPDFSPVPAPPGPGPGLLAQPLGGPGTPSSPGAQRPTPYEWMRRSVAAGGGGGSGKTRTKDKYRVVYTDHQRLELEKEFHYSRYITIRRKSELAANLGLTERQVKIWFQNRRAKERKVNKKKQQQQQPPQPPMAHDITATPAGPSLGGLCPSNTSLLATSSPMPVKEEFLP
B5: CDKN2C (protein, UniProt P42773 1-168, looked up)
Cyclin-dependent kinase 4 …: MAEPWGNELASAAARGDLEQLTSLLQNNVNVNAQNGFGRTALQVMKLGNPEIARRLLLRGANPDLKDRTGFAVIHDAARAGFLDTLQTLLEFQADVNIEDNEGNLPLHLAAKEGHLRVVEFLVKHTASNVGHRNHKGDTACDLARLYGRNEVVSLMQANGAGGATNLQ
B6: CDX2 (protein, UniProt Q99626 1-313, looked up)
Homeobox protein CDX-2: MYVSYLLDKDVSMYPSSVRHSGGLNLAPQNFVSPPQYPDYGGYHVAAAAAAAANLDSAQSPGPSWPAAYGAPLREDWNGYAPGGAAAAANAVAHGLNGGSPAAAMGYSSPADYHPHHHPHHHPHHPAAAPSCASGLLQTLNPGPPGPAATAAAEQLSPGGQRRNLCEWMRKPAQQSLGSQVKTRTKDKYRVVYTDHQRLELEKEFHYSRYITIRRKAELAATLGLSERQVKIWFQNRRAKERKINKKKLQQQQQQQPPQPPPPPPQPPQPQPGPLRSVPEPLSPVSSLQASVPGSVPGVLGPTGGVLNPTVTQ
B7: ZNF581 (protein, UniProt Q9P0T4 1-197, looked up)
Zinc finger protein 581: MLVLPSPCPQPLAFSSVETMEGPPRRTCRSPEPGPSSSIGSPQASSPPRPNHYLLIDTQGVPYTVLVDEESQREPGASGAPGQKKCYSCPVCSRVFEYMSYLQRHSITHSEVKPFECDICGKAFKRASHLARHHSIHLAGGGRPHGCPLCPRRFRDAGELAQHSRVHSGERPFQCPHCPRRFMEQNTLQKHTRWKHP
B8: ZPF91 (protein, UniProt Q96JP5 2-570, looked up)
E3 ubiquitin-protein ligase …: PGETEEPRPPEQQDQEGGEAAKAAPEEPQQRPPEAVAAAPAGTTSSRVLRGGRDRGRAAAAAAAAAVSRRRKAEYPRRRRSSPSARPPDVPGQQPQAAKSPSPVQGKKSPRLLCIEKVTTDKDPKEEKEEEDDSALPQEVSIAASRPSRGWRSSRTSVSRHRDTENTRSSRSKTGSLQLICKSEPNTDQLDYDVGEEHQSPGGISSEEEEEEEEEMLISEEEIPFKDDPRDETYKPHLERETPKPRRKSGKVKEEKEKKEIKVEVEVEVKEEENEIREDEEPPRKRGRRRKDDKSPRLPKRRKKPPIQYVRCEMEGCGTVLAHPRYLQHHIKYQHLLKKKYVCPHPSCGRLFRLQKQLLRHAKHHTDQRDYICEYCARAFKSSHNLAVHRMIHTGEKPLQCEICGFTCRQKASLNWHMKKHDADSFYQFSCNICGKKFEKKDSVVAHKAKSHPEVLIAEALAANAGALITSTDILGTNPESLTQPSDGQGLPLLPEPLGNSTSGECLLLEAEGMSKSYCSGTERVSLMADGKIFVGSGSSGGTEGLVMNSDILGATTEVLIEDSDSAGP
B9: ZNF586 (protein, UniProt Q9NXT0 1-402, looked up)
Zinc finger protein 586: MAAAAALRAPAQSSVTFEDVAVNFSLEEWSLLNEAQRCLYRDVMLETLTLISSLGCWHGGEDEAAPSKQSTCIHIYKDQGGHSGERPYECGEYRKLFKNKSCLTEPRRDHKHRNVRTGERPYECSKYGKLFHQKPTLHIHERFHTGQKTYECSECGKSFHQSSSLLQRQTLHTRERPYECIECGKAFAEKSSLINHRKVHSGAKRYECNECGKSFAYTSSLIKHRRIHTGERPYECSECGRSFAENSSLIKHLRVHTGERPYECVECGKSFRRSSSLLQHQRVHTRERPYECSECGKSFSLRSNLIHHQRVHTGERHECGQCGKSFSRKSSLIIHLRVHTGERPYECSDCGKSFAENSSLIKHLRVHTGERPYECIDCGKSFRHSSSFRRHQRVHTGMRPYK
B10: ZNF671 (protein, UniProt Q8TAW3 1-534, looked up)
Zinc finger protein 671: MLSPVSRDASDALQGRKCLRPRSRRLPLPAAVRAHGPMAELTDSARGCVVFEDVFVYFSREEWELLDDAQRLLYHDVMLENFALLASLGIAFSRSRAVMKLERGEEPWVYDQVDMTSATEREAQRGLRPGCWHGVEDEEVSSEQSIFVAGVSEVRTLMAELESHPCDICGPILKDTLHLAKYHGGKARQKPYLCGACGKQFWFSTDFDQHQNQPNGGKLFPRKEGRDSVKSCRVHVPEKTLTCGKGRRDFSATSGLLQHQASLSSMKPHKSTKLVSGFLMGQRYHRCGECGKAFTRKDTLARHQRIHTGERPYECNECGKFFSQSYDLFKHQTVHTGERPYECSECGKFFRQISGLIEHRRVHTGERLYQCGKCGKFFSSKSNLIRHQEVHTGARPYVCSECGKEFSRKHTLVLHQRTHTGERPYECSECGKAFSQSSHLNVHWRIHSSDYECSRCGKAFSCISKLIQHQKVHSGEKPYECSKCGKAFTQRPNLIRHWKVHTGERPYVCSECGREFIRKQTLVLHQRVHAGEKL
B11: ZNF567 (protein, UniProt Q8N184 1-647, looked up)
Zinc finger protein 567: MAQGSVSFNDVTVDFTQEEWQHLDHAQKTLYMDVMLENYCHLISVGCHMTKPDVILKLERGEEPWTSFAGHTCLEENWKAEDFLVKFKEHQEKYSRSVVSINHKKLVKEKSKIYEKTFTLGKNPVNSKNLPPEYDTHGRILKNVSELIISNLNPARKRLSEYNGYGKSLLSTKQETTHPEVKSHNQSARAFSHNEVLMQYQKTETPAQSFGYNDCEKSFLQRGGLITHSRPYKGENPSVYNKKRRATNIEKKHTCNECGKSFCRKSVLILHQGIHSEEKPYQCHQCGNAFRRKSYLIDHQRTHTGEKPFVCNECGKSFRLKTALTDHQRTHTGEKSYECLQCRNAFRLKSHLIRHQRTHTGEKPYECNDCGKSFRQKTTLSLHQRIHTGEKPYICKECGKSFHQKANLTVHQRTHTGEKPYICNECGKSFSQKTTLALHEKTHNEEKPYICSECGKSFRQKTTLVAHQRTHTGEKSYECPHCGKAFRMKSYLIDHHRTHTGEKPYECNECGKSFSQKTNLNLHQRIHTGEKPYVCNECGKSFRQKATLTVHQKIHTGQKSYECPQCGKAFSRKSYLIHHQRTHTGEKPYKCSECGKCFRQKTNLIVHQRTHTGEKPYVCNECGKSFSYKRNLIVHQRTHKGENIEMQ
B12: ZNF791 (protein, UniProt Q3KP31 1-576, looked up)
Zinc finger protein 791: MDSVAFEDVSVSFSQEEWALLAPSQKKLYRDVMQETFKNLASIGEKWEDPNVEDQHKNQGRNLRSHTGERLCEGKEGSQCAENFSPNLSVTKKTAGVKPYECTICGKAFMRLSSLTRHMRSHTGYELFEKPYKCKECEKAFSYLKSFQRHERSHTGEKPYKCKQCGKTFIYHQPFQRHERTHIGEKPYECKQCGKALSCSSSLRVHERIHTGEKPYECKQCGKAFSCSSSIRVHERTHTGEKPYACKECGKAFISHTSVLTHMITHNGDRPYKCKECGKAFIFPSFLRVHERIHTGEKPYKCKQCGKAFRCSTSIQIHERIHTGEKPYKCKECGKSFSARPAFRVHVRVHTGEKPYKCKECGKAFSRISYFRIHERTHTGEKPYECKKCGKTFNYPLDLKIHKRNHTGEKPYECKECAKTFISLENFRRHMITHTGDGPYKCRDCGKVFIFPSALRTHERTHTGEKPYECKQCGKAFSCSSYIRIHKRTHTGEKPYECKECGKAFIYPTSFQGHMRMHTGEKPYKCKECGKAFSLHSSFQRHTRIHNYEKPLECKQCGKAFSVSTSLKKHMRMHNR

Tested on: HEK293FT cells transfected with TF library
Test: Screening of TF condensates based on fluorescent puncta
Assay type: cell-based
Conditions: Figure 1B numerical data; TF library screen, one value per transcriptional factor
How it was run: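 Cells were seeded onto plasmid/PEI-loaded wells (plasmid 1.6 μg/ml final) and grown 60 h. Medium with or without glucose followed for 12 h. Fixed, permeabilized cells were stained against Flag or GAL4 tags, and condensate puncta were quantified from 50 random fields per well.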

| Molecule | Z score of condensed fraction |
| --- | --- |
| B1 | -0.4682 |
| B2 | -0.3795 |
| B3 | 3.058 |
| B4 | 2.938 |
| B5 | -0.5488 |
| B6 | -0.211 |
| B7 | -0.1395 |
| B8 | -0.03316 |
| B9 | 0.1456 |
| B10 | -0.9445 |
| B11 | -0.7114 |
| B12 | -0.6142 |
